Blank lines part the entries; values can stand above or below the binder they belong to.
How the values were obtained:
[1] = target: T1, Human PD-1-ECD protein (mouse IgG2a Fc tag) (human, UniProt Q15116 25-170); assay: bridging ELISA, coated CD40 ECD-His, soluble PD-1 ECD-mFc
T1 construct: extracellular domain; also called soluble human recombinant PD-1; not shown: mouse IgG2a Fc tag
Protocol: (§1) Briefly, human CD40 ECD protein (His tag) was diluted and coated onto an ELISA plate with a volume of […] by incubation at 4° C. overnight. […] After 1-hour incubation at room temperature, HRP-conjugated anti-Mouse IgG (H+L) antibody was added into the plate at 100 μL/well. The plate was incubated for 1 hour at room temperature followed by washing. TMB substrate solution was added at 100 μL/well and the color development was stopped by adding 100 uL/well Stop Solution (2N H2SO4). Absorbance at 450 nm and 620 nm was read by Tecan F200 Pro plate reader. GraphPad 7.0, “[Agonist] vs. response—Variable slope (four parameters)” was used to plot the binding data and calculate binding EC50 values.

[2] = target: T2, Ly090 (human CD40 ECD protein with His tag) (human, UniProt P25942 21-193); assay: as above
T2 construct: extracellular domain; also called human CD40 ECD protein (His tag); recombinant human CD40; not shown: His tag
Protocol: as §1

[3] = target: T3, human PD-1 expressed on CHO cells (human, UniProt Q15116 25-288); assay: FACS, CHO cells
T3 construct: whole, on cells; also used for human PD-1 on Jurkat reporter cells; also called Jurkat/NFkB-Luci/PD-1 cells

[4] = target: T4, human CD40 expressed on CHO cells (human, UniProt P25942 21-277); assay: FACS, CHO cells
T4 construct: whole, on cells; also used for the reporter cells over-expressing human CD40; also called cellular CD40; CHO-CD40 cells

[5] = target: T5, Human PD-L1 ECD protein (mouse IgG2a Fc tag) (human, UniProt Q9NZQ7 19-238); assay: bridging ELISA, coated CD40 ECD-His, soluble PD-L1 ECD-mFc
T5 construct: extracellular domain; also called recombinant human PD-L1; not shown: mouse IgG2a Fc tag
Protocol: (§2) Exemplary anti-PD-L1/CD40 bi-specific antibodies were analyzed by ELISA for their simultaneous binding to recombinant human PD-L1 and human CD40. Briefly, Ly090 (human CD40 ECD protein with His tag) was diluted and coated onto an ELISA plate with a volume of 100 μL/well by incubation at 4° C. overnight. The next day, the plate was blocked by PBST-BSA buffer, then serially diluted samples of anti-PD-L1/CD40 bi-specific antibodies were pipetted into appropriate wells at 50 μL/well, and the plate was incubated for 1 h followed by Washing. Human PD-L1 ECD protein (mouse IgG2a Fc tag) was added into the plate at 50 μL/well. After 1-hour incubation at room temperature, HRP-conjugated anti-Mouse IgG, Fc G2a antibody was added into the plate at 100 μL/well. The plate was incubated for 1 hour at room temperature followed by washing. TMB substrate solution was added at 100 μL/well and the color development was stopped by adding 100 uL/well Stop Solution (2N H₂SO₄). Absorbance at 450 nm and 620 nm was read by Tecan F200 Pro plate reader. GraphPad 7.0, “[Agonist] vs. response—Variable slope (four parameters)” was used to plot the binding data and calculate binding EC50 values.

[6] = target: T2, Ly090 (human CD40 ECD protein with His …); assay: as above
Protocol: as §2

[7] = target: T6, human PD-L1 expressed on CHO cells (human, UniProt Q9NZQ7 19-290); assay: FACS, CHO cells
T6 construct: whole, on cells; also used for human PD-L1 on Raji cells in the reporter assay; also called cell surface PD-L1; Raji-PD-L1 cells
T6 sequence (Q9NZQ7 19-290): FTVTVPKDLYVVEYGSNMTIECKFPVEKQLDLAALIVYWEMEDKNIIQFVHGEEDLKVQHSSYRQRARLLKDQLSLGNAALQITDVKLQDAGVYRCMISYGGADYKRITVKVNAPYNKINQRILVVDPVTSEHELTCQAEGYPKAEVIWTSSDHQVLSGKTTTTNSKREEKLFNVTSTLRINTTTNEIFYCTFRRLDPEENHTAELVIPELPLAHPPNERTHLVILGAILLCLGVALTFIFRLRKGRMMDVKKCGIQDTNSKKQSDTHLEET

T2 sequence (P25942 21-193): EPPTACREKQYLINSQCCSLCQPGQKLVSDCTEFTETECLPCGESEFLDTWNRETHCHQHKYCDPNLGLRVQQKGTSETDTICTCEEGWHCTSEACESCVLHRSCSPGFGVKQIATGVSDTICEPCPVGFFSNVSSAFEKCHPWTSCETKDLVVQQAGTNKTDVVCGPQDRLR
T5 sequence (Q9NZQ7 19-238): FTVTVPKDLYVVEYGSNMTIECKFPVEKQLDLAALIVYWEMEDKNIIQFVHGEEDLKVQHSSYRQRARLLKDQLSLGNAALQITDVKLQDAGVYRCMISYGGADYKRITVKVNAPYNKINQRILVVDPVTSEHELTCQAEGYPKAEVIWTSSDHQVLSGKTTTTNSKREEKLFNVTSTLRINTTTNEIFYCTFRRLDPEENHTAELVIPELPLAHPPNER
T4 sequence (P25942 21-277): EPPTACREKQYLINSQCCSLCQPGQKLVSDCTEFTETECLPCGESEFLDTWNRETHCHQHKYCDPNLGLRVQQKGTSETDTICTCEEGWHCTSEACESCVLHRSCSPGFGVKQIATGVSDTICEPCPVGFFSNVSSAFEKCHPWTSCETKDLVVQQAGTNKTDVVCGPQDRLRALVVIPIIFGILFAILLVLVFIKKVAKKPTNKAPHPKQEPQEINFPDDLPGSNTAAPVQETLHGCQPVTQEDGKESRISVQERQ
T3 sequence (Q15116 25-288): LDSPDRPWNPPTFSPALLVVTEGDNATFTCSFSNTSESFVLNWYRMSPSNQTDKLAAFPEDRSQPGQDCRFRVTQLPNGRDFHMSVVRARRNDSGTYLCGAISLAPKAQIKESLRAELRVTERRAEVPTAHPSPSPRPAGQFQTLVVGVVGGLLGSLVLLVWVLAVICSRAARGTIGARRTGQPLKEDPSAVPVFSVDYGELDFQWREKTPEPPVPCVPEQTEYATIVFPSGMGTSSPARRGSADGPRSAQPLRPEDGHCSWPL
T1 sequence (Q15116 25-170): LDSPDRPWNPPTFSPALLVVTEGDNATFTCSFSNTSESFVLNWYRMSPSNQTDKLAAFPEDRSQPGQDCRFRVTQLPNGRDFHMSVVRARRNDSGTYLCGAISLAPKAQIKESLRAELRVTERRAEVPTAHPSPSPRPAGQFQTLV

binding result [1]: binds
binding result [2]: binds
binding result [3]: binds
binding result [4]: binds
B1: Ly608 (bispecific antibody, human IgG1, kappa)
heavy: QVTLKESGPALVKPTQTLTLTCTFSGFSLSTSGTCVSWIRQPPGKALEWLATICWEDSKGYNPSLKSRLTISKDTSKNQAVLTMTNMDPVDTATYYCARREDSGYFWFPYWGQGTLVTVSSASTKGPSVFPLAPSSKSTSGGTAALGCLVKDYFPEPVTVSWNSGALTSGVHTFPAVLQSSGLYSLSSVVTVPSSSLGTQTYICNVNHKPSNTKVDKKVEPKSCDKTHTCPPCPAPELLGPSVFLFPPKPKDTLMISRTPEVTCVVVDVSHEDPEVKFNWYVDGVEVHNAKTKPREEQYNSTYRVVSVLTVLHQDWLNGKEYKCKVSNKALPAPIEKTISKAKGQPREPQVYTLPPSREEMTKNQVSLTCLVKGFYPSDIAVEWESNGQPENNYKTTPPVLDSDGSFFLYSKLTVDKSRWQQGNVFSCSVMHEALHNHYTQKSLSLSPGGGGGSGGGGSGGGGSGGGGSDIQMTQSPSSLSASVGDRVTITCLASEDISNDLAWYQQKPGKAPKLLIYFVDRLLDGVPSRFSGSGSGTDFTLTISSLQPEDFATYYCQQSYKYPPTFGQGTKLEIKGGGGSGGGGSGGGGSGGGGSEVQLVESGGGLVQPGGSLRLSCAASGFTFTNYGLHWVRQAPGKGLEWVSSISPSGGVTYYRDSVKGRFTISRDNSKNTLYLQMNSLRAEDTAVYYCAKPFLGWGGANWIAHWGQGTLVTVSS
light: NIQMTQSPSSLSASVGDRVTITCKAGQNVNNYLAWYQQKPGKAPKVLIFNANSLQTGVPSRFSGSGSGTDFTLTISSLQPEDFATYYCQQYNSWPTFGGGTKVEIKRTVAAPSVFIFPPSDEQLKSGTASVVCLLNNFYPREAKVQWKVDNALQSGNSQESVTEQDSKDSTYSLSSTLTLSKADYEKHKVYACEVTHQGLSSPVTKSFNRGEC
notes: Ly516 HC (IgG1 mutated Fc)-TM559 scFv VL-VH + Ly516 LC

binding result [1]: binds
binding result [2]: binds
binding result [3]: binds
binding result [4]: binds
B2: Ly609 (bispecific antibody, human IgG1, kappa)
heavy: QVTLKESGPALVKPTQTLTLTCTFSGFSLSTSGTCVSWIRQPPGKALEWLATICWEDSKGYNPSLKSRLTISKDTSKNQAVLTMTNMDPVDTATYYCARREDSGYFWFPYWGQGTLVTVSSASTKGPSVFPLAPSSKSTSGGTAALGCLVKDYFPEPVTVSWNSGALTSGVHTFPAVLQSSGLYSLSSVVTVPSSSLGTQTYICNVNHKPSNTKVDKKVEPKSCDKTHTCPPCPAPELLGPSVFLFPPKPKDTLMISRTPEVTCVVVDVSHEDPEVKFNWYVDGVEVHNAKTKPREEQYNSTYRVVSVLTVLHQDWLNGKEYKCKVSNKALPAPIEKTISKAKGQPREPQVYTLPPSREEMTKNQVSLTCLVKGFYPSDIAVEWESNGQPENNYKTTPPVLDSDGSFFLYSKLTVDKSRWQQGNVFSCSVMHEALHNHYTQKSLSLSPGGGGGSGGGGSGGGGSGGGGSEVQLVESGGGLVQPGGSLRLSCAASGFTFTNYGLHWVRQAPGKGLEWVSSISPSGGVTYYRDSVKGRFTISRDNSKNTLYLQMNSLRAEDTAVYYCAKPFLGWGGANWIAHWGQGTLVTVSSGGGGSGGGGSGGGGSGGGGSDIQMTQSPSSLSASVGDRVTITCLASEDISNDLAWYQQKPGKAPKLLIYFVDRLLDGVPSRFSGSGSGTDFTLTISSLQPEDFATYYCQQSYKYPPTFGQGTKLEIK
light: B1 light
notes: Ly516 HC (IgG1 mutated Fc)-TM559 scFv VH-VL + Ly516 LC

binding result [5]: binds
binding result [6]: binds
binding result [7]: binds
binding result [4]: binds
B3: Ly301 (bispecific antibody, human IgG1, kappa)
heavy: QVQLVQSGAEVKKPGASVKVSCKASGYTFTDFWMSWVRQAPGQGLEWMGQIYPNTGTTHSNEKFKGRVTMTRDTSTSTVYMELSSLRSEDTAVYYCARSYHISTTPNWFAYWGQGTLVTVSSASTKGPSVFPLAPSSKSTSGGTAALGCLVKDYFPEPVTVSWNSGALTSGVHTFPAVLQSSGLYSLSSVVTVPSSSLGTQTYICNVNHKPSNTKVDKKVEPKSCDKTHTCPPCPAPELLGPSVFLFPPKPKDTLMISRTPEVTCVVVDVSHEDPEVKFNWYVDGVEVHNAKTKPREEQYNSTYRVVSVLTVLHQDWLNGKEYKCKVSNKALPAPIEKTISKAKGQPREPQVYTLPPSREEMTKNQVSLTCLVKGFYPSDIAVEWESNGQPENNYKTTPPVLDSDGSFFLYSKLTVDKSRWQQGNVFSCSVMHEALHNHYTQKSLSLSPGGGGGSGGGGSGGGGSGGGGSDIQMTQSPSSLSASVGDRVTITCKASQNIYIYLNWYQQKPGKAPKLLIYNTNNLQTGVPSRFSGSGSGTDFTLTISSLQPEDFATYYCLQHSSRRTFGGGTKVEIKGGGGSGGGGSGGGGSGGGGSQVQLVESGGGLVQPGGSLKLSCATSGFNFNDYFMNWVRQASGKGLEWVGQIRNKNYNYATYYTESLEGRVTISRDDSKNTAYLQMNSLKTEDTAVYYCTSYYYDGFADYFDYWGQGTTVTVSS
light: DIQMTQSPSSLSASVGDRVTITCKASQNVYKKLEWYQQKPGKVPKVLIYHTNILQTGVPSRFSGSGSGTDYTLTISSLQPEDVATYYCYQWNSGPTFGGGTKVEIKRTVAAPSVFIFPPSDEQLKSGTASVVCLLNNFYPREAKVQWKVDNALQSGNSQESVTEQDSKDSTYSLSSTLTLSKADYEKHKVYACEVTHQGLSSPVTKSFNRGEC
notes: Ly076 HC (IgG1 mutated Fc)-TM740 scFv VL-VH + Ly076 LC

binding result [5]: binds
binding result [6]: binds
binding result [7]: binds
binding result [4]: binds
B4: Ly338 (bispecific antibody, human IgG1, kappa)
heavy: QVQLVQSGAEVKKPGASVKVSCKASGYTFTDFWMSWVRQAPGQGLEWMGQIYPNTGTTHSNEKFKGRVTMTRDTSTSTVYMELSSLRSEDTAVYYCARSYHISTTPNWFAYWGQGTLVTVSSASTKGPSVFPLAPSSKSTSGGTAALGCLVKDYFPEPVTVSWNSGALTSGVHTFPAVLQSSGLYSLSSVVTVPSSSLGTQTYICNVNHKPSNTKVDKKVEPKSCDKTHTCPPCPAPELLGPSVFLFPPKPKDTLMISRTPEVTCVVVDVSHEDPEVKFNWYVDGVEVHNAKTKPREEQYNSTYRVVSVLTVLHQDWLNGKEYKCKVSNKALPAPIEKTISKAKGQPREPQVYTLPPSREEMTKNQVSLTCLVKGFYPSDIAVEWESNGQPENNYKTTPPVLDSDGSFFLYSKLTVDKSRWQQGNVFSCSVMHEALHNHYTQKSLSLSPGGGGGSGGGGSGGGGSGGGGSQVQLVESGGGLVQPGGSLKLSCATSGFNFNDYFMNWVRQASGKGLEWVGQIRNKNYNYATYYTESLEGRVTISRDDSKNTAYLQMNSLKTEDTAVYYCTSYYYDGFADYFDYWGQGTTVTVSSGGGGSGGGGSGGGGSGGGGSDIQMTQSPSSLSASVGDRVTITCKASQNIYIYLNWYQQKPGKAPKLLIYNTNNLQTGVPSRFSGSGSGTDFTLTISSLQPEDFATYYCLQHSSRRTFGGGTKVEIK
light: B3 light
notes: Ly076 HC (IgG1 mutated Fc)-TM740 scFv VH-VL + Ly076 LC

binding result [5]: binds
binding result [6]: binds
binding result [7]: binds
binding result [4]: binds
B5: Ly349 (bispecific antibody, human IgG1, kappa)
heavy: QVQLVQSGAEVKKPGASVKVSCKASGYTFTDFWMSWVRQAPGQGLEWMGQIYPNTGTTHSNEKFKGRVTMTRDTSTSTVYMELSSLRSEDTAVYYCARSYHISTTPNWFAYWGQGTLVTVSSASTKGPSVFPLAPSSKSTSGGTAALGCLVKDYFPEPVTVSWNSGALTSGVHTFPAVLQSSGLYSLSSVVTVPSSSLGTQTYICNVNHKPSNTKVDKKVEPKSCDKTHTCPPCPAPELLGPSVFLFPPKPKDTLMISRTPEVTCVVVDVSHEDPEVKFNWYVDGVEVHNAKTKPREEQYNSTYRVVSVLTVLHQDWLNGKEYKCKVSNKALPAPIEKTISKAKGQPREPQVYTLPPSREEMTKNQVSLTCLVKGFYPSDIAVEWESNGQPENNYKTTPPVLDSDGSFFLYSKLTVDKSRWQQGNVFSCSVMHEALHNHYTQKSLSLSPG
light: DIQMTQSPSSLSASVGDRVTITCKASQNVYKKLEWYQQKPGKVPKVLIYHTNILQTGVPSRFSGSGSGTDYTLTISSLQPEDVATYYCYQWNSGPTFGGGTKVEIKRTVAAPSVFIFPPSDEQLKSGTASVVCLLNNFYPREAKVQWKVDNALQSGNSQESVTEQDSKDSTYSLSSTLTLSKADYEKHKVYACEVTHQGLSSPVTKSFNRGECGGGGSGGGGSGGGGSGGGGSDIQMTQSPSSLSASVGDRVTITCKASQNIYIYLNWYQQKPGKAPKLLIYNTNNLQTGVPSRFSGSGSGTDFTLTISSLQPEDFATYYCLQHSSRRTFGGGTKVEIKGGGGSGGGGSGGGGSGGGGSQVQLVESGGGLVQPGGSLKLSCATSGFNFNDYFMNWVRQASGKGLEWVGQIRNKNYNYATYYTESLEGRVTISRDDSKNTAYLQMNSLKTEDTAVYYCTSYYYDGFADYFDYWGQGTTVTVSS
notes: Ly076 HC (IgG1 mutated Fc) + Ly076 LC-TM740 scFv VL-VH

From patent publication US20220372155A1 (LYVGEN BIOPHARMA, published 2022)
